Data on 6 molecules can be found in US20140087995A1 (published 2014).

The labels stand for the following.
B1: N^α1-[(4S)-4-carboxy-4-(19-carboxynonadecanoylamino)butanoyl]-[Glu14,Arg17,Pro21,Pro27,Pro34]-h-amylin (peptide)
peptide: {C20 diacid-γGlu}-KCNTATCATQRLAEFLRHSSPNFGAIPSSTNVGPNTY-NH2
modifications: disulfide 2-7
SMILES: CC[C@H](C)[C@H](NC(=O)[C@H](C)NC(=O)CNC(=O)[C@H](Cc1ccccc1)NC(=O)[C@H](CC(N)=O)NC(=O)[C@@H]1CCCN1C(=O)[C@H](CO)NC(=O)[C@H](CO)NC(=O)[C@H](Cc1c[nH]cn1)NC(=O)[C@H](CCCNC(=N)N)NC(=O)[C@H](CC(C)C)NC(=O)[C@H](Cc1ccccc1)NC(=O)[C@H](CCC(=O)O)NC(=O)[C@H](C)NC(=O)[C@H](CC(C)C)NC(=O)[C@H](CCCNC(=N)N)NC(=O)[C@H](CCC(N)=O)NC(=O)[C@@H](NC(=O)[C@H](C)NC(=O)[C@@H]1CSSC[C@H](NC(=O)[C@H](CCCCN)NC(=O)CC[C@H](NC(=O)CCCCCCCCCCCCCCCCCCC(=O)O)C(=O)O)C(=O)N[C@@H](CC(N)=O)C(=O)N[C@@H]([C@@H](C)O)C(=O)N[C@@H](C)C(=O)N[C@@H]([C@@H](C)O)C(=O)N1)[C@@H](C)O)C(=O)N1CCC[C@H]1C(=O)N[C@@H](CO)C(=O)N[C@@H](CO)C(=O)N[C@H](C(=O)N[C@@H](CC(N)=O)C(=O)N[C@H](C(=O)NCC(=O)N1CCC[C@H]1C(=O)N[C@@H](CC(N)=O)C(=O)N[C@H](C(=O)N[C@@H](Cc1ccc(O)cc1)C(N)=O)[C@@H](C)O)C(C)C)[C@@H](C)O
notes: also called 14E, 17R, 21P, 27P, 34P
B2: N^α1N^α1-[(4S)-4-carboxy-4-(19-carboxynonadecanoylamino)butanoyl]-[Glu14,Arg17,Pro21,Pro27,Glu35]-h-amylin (peptide)
peptide: {C20 diacid-γGlu}-KCNTATCATQRLAEFLRHSSPNFGAIPSSTNVGSETY-NH2
modifications: disulfide 2-7
SMILES: CC[C@H](C)[C@H](NC(=O)[C@H](C)NC(=O)CNC(=O)[C@H](Cc1ccccc1)NC(=O)[C@H](CC(N)=O)NC(=O)[C@@H]1CCCN1C(=O)[C@H](CO)NC(=O)[C@H](CO)NC(=O)[C@H](Cc1c[nH]cn1)NC(=O)[C@H](CCCNC(=N)N)NC(=O)[C@H](CC(C)C)NC(=O)[C@H](Cc1ccccc1)NC(=O)[C@H](CCC(=O)O)NC(=O)[C@H](C)NC(=O)[C@H](CC(C)C)NC(=O)[C@H](CCCNC(=N)N)NC(=O)[C@H](CCC(N)=O)NC(=O)[C@@H](NC(=O)[C@H](C)NC(=O)[C@@H]1CSSC[C@H](NC(=O)[C@H](CCCCN)NC(=O)CC[C@H](NC(=O)CCCCCCCCCCCCCCCCCCC(=O)O)C(=O)O)C(=O)N[C@@H](CC(N)=O)C(=O)N[C@@H]([C@@H](C)O)C(=O)N[C@@H](C)C(=O)N[C@@H]([C@@H](C)O)C(=O)N1)[C@@H](C)O)C(=O)N1CCC[C@H]1C(=O)N[C@@H](CO)C(=O)N[C@@H](CO)C(=O)N[C@H](C(=O)N[C@@H](CC(N)=O)C(=O)N[C@H](C(=O)NCC(=O)N[C@@H](CO)C(=O)N[C@@H](CCC(=O)O)C(=O)N[C@H](C(=O)N[C@@H](Cc1ccc(O)cc1)C(N)=O)[C@@H](C)O)C(C)C)[C@@H](C)O
notes: also called 14E, 17R, 21P, 27P, 35E
B3: N^α1-[(4S)-4-carboxy-4-(19-carboxynonadecanoylamino)butanoyl]-[Glu14,Arg17,Pro21,Pro27]-h-amylin (peptide)
peptide: KCNTATCATQRLAEFLRHSSPNFGAIPSSTNVGSNTY
modifications: C20 diacid-gGlu on the alpha amino group of the N-terminal residue; disulfide Cys2-Cys7 and C-terminal amide as in human amylin
notes: also called 14E, 17R, 21P, 27P
B4: N^α1-[(4S)-4-carboxy-4-[[(4S)-4-carboxy-4-(19-carboxynonadecanoylamino)butanoyl]amino]butanoyl]-[Glu14,Arg17,Pro21,Pro27,Pro37]-h-amylin (peptide)
peptide: {C20 diacid-γGlu-γGlu}-KCNTATCATQRLAEFLRHSSPNFGAIPSSTNVGSNTP-NH2
modifications: disulfide 2-7
SMILES: CC[C@H](C)[C@H](NC(=O)[C@H](C)NC(=O)CNC(=O)[C@H](Cc1ccccc1)NC(=O)[C@H](CC(N)=O)NC(=O)[C@@H]1CCCN1C(=O)[C@H](CO)NC(=O)[C@H](CO)NC(=O)[C@H](Cc1c[nH]cn1)NC(=O)[C@H](CCCNC(=N)N)NC(=O)[C@H](CC(C)C)NC(=O)[C@H](Cc1ccccc1)NC(=O)[C@H](CCC(=O)O)NC(=O)[C@H](C)NC(=O)[C@H](CC(C)C)NC(=O)[C@H](CCCNC(=N)N)NC(=O)[C@H](CCC(N)=O)NC(=O)[C@@H](NC(=O)[C@H](C)NC(=O)[C@@H]1CSSC[C@H](NC(=O)[C@H](CCCCN)NC(=O)CC[C@H](NC(=O)CC[C@H](NC(=O)CCCCCCCCCCCCCCCCCCC(=O)O)C(=O)O)C(=O)O)C(=O)N[C@@H](CC(N)=O)C(=O)N[C@@H]([C@@H](C)O)C(=O)N[C@@H](C)C(=O)N[C@@H]([C@@H](C)O)C(=O)N1)[C@@H](C)O)C(=O)N1CCC[C@H]1C(=O)N[C@@H](CO)C(=O)N[C@@H](CO)C(=O)N[C@H](C(=O)N[C@@H](CC(N)=O)C(=O)N[C@H](C(=O)NCC(=O)N[C@@H](CO)C(=O)N[C@@H](CC(N)=O)C(=O)N[C@H](C(=O)N1CCC[C@H]1C(N)=O)[C@@H](C)O)C(C)C)[C@@H](C)O
notes: also called 14E, 17R, 21P, 27P, 37P
B5: N^α1-[(4S)-4-carboxy-4-(19-carboxynonadecanoylamino)butanoyl]-[Glu14,Arg17,Pro21,Pro27,Pro37]-h-amylin (peptide)
peptide: {C20 diacid-γGlu}-KCNTATCATQRLAEFLRHSSPNFGAIPSSTNVGSNTP-NH2
modifications: disulfide 2-7
SMILES: CC[C@H](C)[C@H](NC(=O)[C@H](C)NC(=O)CNC(=O)[C@H](Cc1ccccc1)NC(=O)[C@H](CC(N)=O)NC(=O)[C@@H]1CCCN1C(=O)[C@H](CO)NC(=O)[C@H](CO)NC(=O)[C@H](Cc1c[nH]cn1)NC(=O)[C@H](CCCNC(=N)N)NC(=O)[C@H](CC(C)C)NC(=O)[C@H](Cc1ccccc1)NC(=O)[C@H](CCC(=O)O)NC(=O)[C@H](C)NC(=O)[C@H](CC(C)C)NC(=O)[C@H](CCCNC(=N)N)NC(=O)[C@H](CCC(N)=O)NC(=O)[C@@H](NC(=O)[C@H](C)NC(=O)[C@@H]1CSSC[C@H](NC(=O)[C@H](CCCCN)NC(=O)CC[C@H](NC(=O)CCCCCCCCCCCCCCCCCCC(=O)O)C(=O)O)C(=O)N[C@@H](CC(N)=O)C(=O)N[C@@H]([C@@H](C)O)C(=O)N[C@@H](C)C(=O)N[C@@H]([C@@H](C)O)C(=O)N1)[C@@H](C)O)C(=O)N1CCC[C@H]1C(=O)N[C@@H](CO)C(=O)N[C@@H](CO)C(=O)N[C@H](C(=O)N[C@@H](CC(N)=O)C(=O)N[C@H](C(=O)NCC(=O)N[C@@H](CO)C(=O)N[C@@H](CC(N)=O)C(=O)N[C@H](C(=O)N1CCC[C@H]1C(N)=O)[C@@H](C)O)C(C)C)[C@@H](C)O
notes: as for B4
B6: N^ε1-[2-[2-[2-(19-carboxynonadecanoylamino)ethoxy]ethoxy]acetyl]-[Arg17,Pro21,Pro27,His34]-h-amylin (peptide)
peptide: K([AEEA-C20 diacid])CNTATCATQRLANFLRHSSPNFGAIPSSTNVGHNTY-NH2
modifications: disulfide 2-7; N-terminus assumed
SMILES: CC[C@H](C)[C@H](NC(=O)[C@H](C)NC(=O)CNC(=O)[C@H](Cc1ccccc1)NC(=O)[C@H](CC(N)=O)NC(=O)[C@@H]1CCCN1C(=O)[C@H](CO)NC(=O)[C@H](CO)NC(=O)[C@H](Cc1c[nH]cn1)NC(=O)[C@H](CCCNC(=N)N)NC(=O)[C@H](CC(C)C)NC(=O)[C@H](Cc1ccccc1)NC(=O)[C@H](CC(N)=O)NC(=O)[C@H](C)NC(=O)[C@H](CC(C)C)NC(=O)[C@H](CCCNC(=N)N)NC(=O)[C@H](CCC(N)=O)NC(=O)[C@@H](NC(=O)[C@H](C)NC(=O)[C@@H]1CSSC[C@H](NC(=O)[C@@H](N)CCCCNC(=O)COCCOCCNC(=O)CCCCCCCCCCCCCCCCCCC(=O)O)C(=O)N[C@@H](CC(N)=O)C(=O)N[C@@H]([C@@H](C)O)C(=O)N[C@@H](C)C(=O)N[C@@H]([C@@H](C)O)C(=O)N1)[C@@H](C)O)C(=O)N1CCC[C@H]1C(=O)N[C@@H](CO)C(=O)N[C@@H](CO)C(=O)N[C@H](C(=O)N[C@@H](CC(N)=O)C(=O)N[C@H](C(=O)NCC(=O)N[C@@H](Cc1c[nH]cn1)C(=O)N[C@@H](CC(N)=O)C(=O)N[C@H](C(=O)N[C@@H](Cc1ccc(O)cc1)C(N)=O)[C@@H](C)O)C(C)C)[C@@H](C)O
notes: also called 17R, 21P, 27P, 34H

Numbered stars: 1 amine (or outer) side, 2 acyl side, 3 side chain; on linkers, the order of the positions; unused ones are H or OH. Bridge positions count the residues as written; N and C are the ends. Side chains are listed from the residue outwards. Ends that are not written are not given here. * marks the point of attachment. C20 diacid = O=C(O)CCCCCCCCCCCCCCCCCCC(=O)*; γGlu = O=C(O)[C@H](CCC(=O)[*:2])N[*:1]; AEEA = NCCOCCOCC(=O)O

In the experiment the target is T1, human amylin receptor (human, UniProt P30988 25-474; O60896 24-148, limits assumed).
T1 construct: whole, on cells; Calcitonin receptor plus RAMP-3 gives the amylin 3(a) receptor; membranes of Amylin 3(a)/CRE-luc cells were used; also called hAmylin-R; hAmylinR
T1 sequence (looked up) 1: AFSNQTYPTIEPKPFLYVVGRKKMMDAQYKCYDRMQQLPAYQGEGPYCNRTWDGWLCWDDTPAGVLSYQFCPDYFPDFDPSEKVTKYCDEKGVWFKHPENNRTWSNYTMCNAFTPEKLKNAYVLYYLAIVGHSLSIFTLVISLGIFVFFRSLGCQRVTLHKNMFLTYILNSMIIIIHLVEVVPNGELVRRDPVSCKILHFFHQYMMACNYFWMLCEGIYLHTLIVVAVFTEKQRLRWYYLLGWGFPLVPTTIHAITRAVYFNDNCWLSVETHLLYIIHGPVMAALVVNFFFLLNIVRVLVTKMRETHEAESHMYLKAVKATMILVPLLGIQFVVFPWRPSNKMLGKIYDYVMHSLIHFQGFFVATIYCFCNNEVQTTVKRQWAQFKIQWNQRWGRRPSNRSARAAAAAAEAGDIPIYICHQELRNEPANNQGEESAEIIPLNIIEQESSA
T1 sequence (looked up) 2: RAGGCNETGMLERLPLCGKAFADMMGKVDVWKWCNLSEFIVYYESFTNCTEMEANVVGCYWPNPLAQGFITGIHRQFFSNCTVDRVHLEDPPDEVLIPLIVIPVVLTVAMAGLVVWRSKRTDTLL
The experiment in a line: SPA competition binding, displacement of 125I-rat amylin from membranes with human amylin 3(a) receptor (Assay V). The method, then: The binding assay was performed using scintillation proximity assay (SPA) beads (RPNQ0001) from PerkinElmer and cell membranes from the Amylin 3(a)/CRE-luc cells (as described in Assay (II)) were used. Membranes were prepared in the following way; the cells were rinsed with PBS and incubated with Versene for approximately 5 min before harvesting. The cells were flushed with PBS and the cell-suspension was centrifuged for 5 min at 1000 rpm. Cells were homogenized (ultrathurrax) in a buffer containing 20 mM Na-HEPES and 10 mM EDTA (pH 7.4) and centrifuged at 20.000 rpm for 15 min. The resulting pellet was resuspended, homogenized and centrifuged (20.000 rpm, 15 min) in a buffer containing 20 mM Na-HEPES and 0.1 mM EDTA (pH 7.4, buffer 2). The resulting pellet was resuspended in buffer 2 and protein concentration was measured (BCA protein Assay, Pierce). The homogenate was kept cold during the whole procedure. The membranes were kept at −80° C. until use. The assay was performed in a 384 well Optiplate (PerkinElmer) in a total volume of 40 ul. Membranes were mixed with SPA beads. Final concentration of membranes 35 ng/μL final and SPA beads was 0.05 mg/well. Test-compounds were dissolved in DMSO and further diluted in assay buffer (50 mM Hepes, pH 7.4, 1 mM CaCl2, 5 mM MgCl₂, 0.1% OA and 0.02% Tween20). […] The final mixture was incubated with shaking at 400 rpm for 120 min at 25° C. prior to centrifugation (1500 rpm, 10 min). Samples were analyzed on TopCounter™ (Packard). The IC₅₀ was calculated using (one site binding competition analysis) GraphPad Prism5 as a measure of receptor affinity.
(Loss of bound radioactivity is the signal in a displacement assay; it reports binding, not function.)
One may read the IC50 as the concentration that inhibits the measured activity by half. Read a high IC50 as a need for much substance. In turn, B1 showed an IC50 of 0.1 nM. Under B2 stands 0.794 nM; under B3, 0.143 nM; under B4, 0.196 nM.

In turn, B5 returned an IC50 of 0.072 nM. In turn, B6 came in with an IC50 of 0.119 nM.
